Legend:
[1] = target: T1, Human CD73 K180A+N185G, His-tagged (human, UniProt P21589 27-549); experiment: SPR (ProteOn), CD73 variant immobilized on HTG chip
T1 chain: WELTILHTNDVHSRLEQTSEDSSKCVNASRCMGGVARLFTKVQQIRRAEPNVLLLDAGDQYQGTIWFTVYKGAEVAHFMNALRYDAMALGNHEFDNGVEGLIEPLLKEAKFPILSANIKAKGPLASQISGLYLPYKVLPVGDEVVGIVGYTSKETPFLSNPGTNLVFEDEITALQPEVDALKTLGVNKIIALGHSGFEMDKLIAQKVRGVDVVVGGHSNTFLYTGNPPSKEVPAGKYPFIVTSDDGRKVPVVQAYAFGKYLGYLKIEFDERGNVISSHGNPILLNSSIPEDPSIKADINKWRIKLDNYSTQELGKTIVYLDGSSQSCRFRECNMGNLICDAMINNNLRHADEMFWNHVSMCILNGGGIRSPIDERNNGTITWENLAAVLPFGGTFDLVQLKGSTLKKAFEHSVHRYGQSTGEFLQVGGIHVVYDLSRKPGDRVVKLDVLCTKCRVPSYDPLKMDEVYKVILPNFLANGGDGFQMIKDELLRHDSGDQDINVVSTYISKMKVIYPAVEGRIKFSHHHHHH
Method: (§1) Binding of MEDI9447 to wild-type and mutant CD73 proteins was measured by surface plasmon resonance (SPR) using a ProteOn instrument (BioRad). CD73 crude cell supernatant protein samples were diluted to 3 µg/ml in PBS, 0.005% Tween-20, pH 7.4 (BioRad) and immobilized to ~400 RU on a HTG tris-NTA sensor chip (BioRad) pre-activated with 10 mM NiSO₄, 10 mM MES, pH 6.0 (BioRad). An equivalently diluted crude cell supernatant sample from non-transfected cells was included as a reference channel control. Sensorgrams were recorded by flowing two-fold dilutions of MEDI9447 prepared in PBS, 0.005% Tween-20, pH 7.4, ranging from 5 nM to 0.31 nM. […] Antibody binding was measured at a flow rate of 100 µL/min with a 3 min association phase and 20 min dissociation phase. The sensor chip surface was regenerated between each run by an 800 s injection of 300 mM EDTA, pH 8.5 (BioRad) at a flow rate of 30 µL/min. Binding kinetics were analyzed using the ProteOn data analysis software. Double referencing was performed and, unless noted otherwise, a 1:1 Langmuir binding model was utilized to fit the data. Some CD73 variants containing mutations within the amino acid region 171-188 fit poorly to a 1:1 model (i.e., Chi² values >10% of Rmax). Where noted, these variants were fit with a heterogenous antigen (2:1) model. […] Due to the assay format (antigen immobilized) and the dimeric state of CD73, KD values may be exaggerated due to avidity effects. However, it is not anticipated that this impacts ranking of MEDI9447 binding to the different CD73 variants.

KO_Linker CD73 chimera = target: T2, KO_Linker CD73 chimera (human; chicken, UniProt P21589 27-553); experiment: as above
T2 construct: also called KO_292-310; linker region-swapped CD73
T2 chain: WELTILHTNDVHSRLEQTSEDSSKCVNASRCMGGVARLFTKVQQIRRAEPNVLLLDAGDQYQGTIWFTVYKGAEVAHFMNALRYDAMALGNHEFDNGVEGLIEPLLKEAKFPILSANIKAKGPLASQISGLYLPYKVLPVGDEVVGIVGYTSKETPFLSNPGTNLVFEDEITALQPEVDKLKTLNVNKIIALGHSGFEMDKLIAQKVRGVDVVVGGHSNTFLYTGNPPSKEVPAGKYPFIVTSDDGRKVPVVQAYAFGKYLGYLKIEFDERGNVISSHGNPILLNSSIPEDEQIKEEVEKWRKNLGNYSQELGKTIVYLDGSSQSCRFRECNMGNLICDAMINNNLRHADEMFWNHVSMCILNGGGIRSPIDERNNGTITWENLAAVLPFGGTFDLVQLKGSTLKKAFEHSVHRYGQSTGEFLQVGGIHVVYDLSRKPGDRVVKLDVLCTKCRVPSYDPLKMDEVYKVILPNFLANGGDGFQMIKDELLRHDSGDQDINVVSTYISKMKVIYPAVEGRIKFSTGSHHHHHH
Method: as §1

[2] = target: T3, Murine CD73 on cells (4T1, Jurkat mCD73 knock-in) (murine, UniProt Q61503 29-551); experiment: cell-based or functional assay
T3 sequence (looked up): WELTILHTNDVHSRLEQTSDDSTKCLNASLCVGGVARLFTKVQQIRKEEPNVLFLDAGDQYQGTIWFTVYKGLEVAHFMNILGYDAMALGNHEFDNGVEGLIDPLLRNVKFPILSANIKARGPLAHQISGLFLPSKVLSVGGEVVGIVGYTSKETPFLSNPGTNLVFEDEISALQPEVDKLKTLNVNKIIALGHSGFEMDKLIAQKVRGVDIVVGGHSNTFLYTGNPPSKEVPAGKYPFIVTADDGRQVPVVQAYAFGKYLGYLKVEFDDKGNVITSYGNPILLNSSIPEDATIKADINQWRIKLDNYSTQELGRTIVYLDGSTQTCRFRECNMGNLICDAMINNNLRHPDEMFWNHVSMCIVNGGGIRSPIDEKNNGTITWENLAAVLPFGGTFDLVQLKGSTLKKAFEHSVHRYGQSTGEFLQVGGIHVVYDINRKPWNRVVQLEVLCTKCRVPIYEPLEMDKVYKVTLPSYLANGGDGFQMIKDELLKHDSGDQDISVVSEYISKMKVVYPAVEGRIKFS

[3] = target: T3, Murine CD73 on cells (4T1, Jurkat mCD73 …); experiment: flow cytometry, 4T1 / 4T1(mCD73 -shRNA)

B1: MEDI9447 (antibody, human IgG1, lambda, V domains shown)
VH: EVQLLESGGGLVQPGGSLRLSCAASGFTFSSYAYSWVRQAPGKGLEWVSAISGSGGRTYYADSVKGRFTISRDNSKNTLYLQMNSLRAEDTAVYYCARLGYGRVDEWGRGTLVTVSS
VL: QSVLTQPPSASGTPGQRVTISCSGSLSNIGRNPVNWYQQLPGTAPKLLIYLDNLRLSGVPDRFSGSKSGTSASLAISGLQSEDEADYYCATWDDSHPGWTFGGGTKLTVLG
notes: Human IgG1-TM (L234F, L235E, P331S), lambda light chain; also called clone 10.3 antibody; 73combo3
[1]
  binding result: no binding
KO_Linker CD73 chimera
  Kd: 0.00414 nM
  koff: 2.31e-05 s⁻¹
  kon: 5.7e+06 M⁻¹ s⁻¹
[2]
  FabZAP internalization, EC50, 4T1: 0.0185 nM
[3]
  Mean Fluorescence Intensity Ratio (MFIR): 3.9

From patent US20230340152A1 (published 2023)
